Experimental data from paper PMC10977697 (PLOS ONE, 2024).

T1: Notch2Long (Notch2 EGF6-EGF12) (human, UniProt Q04721 219-418, biotin on the N-terminal Avi tag (enzymatic))
T1 construct: also called N2L protein; hNotch2; not shown: Avi tag, N-terminal, kept
T1 sequence (looked up): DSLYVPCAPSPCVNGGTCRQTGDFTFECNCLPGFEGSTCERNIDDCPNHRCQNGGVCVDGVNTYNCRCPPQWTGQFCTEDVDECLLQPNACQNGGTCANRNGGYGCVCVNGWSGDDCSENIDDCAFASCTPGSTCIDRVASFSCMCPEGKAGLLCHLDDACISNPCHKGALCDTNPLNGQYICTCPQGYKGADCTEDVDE

T2: Notch2NRR (Notch2 NRR domain) (human, UniProt Q04721 1423-1677, biotin on the N-terminal Avi tag (enzymatic))
T2 construct: also called NRR protein; not shown: Avi tag, N-terminal, kept
T2 sequence (looked up): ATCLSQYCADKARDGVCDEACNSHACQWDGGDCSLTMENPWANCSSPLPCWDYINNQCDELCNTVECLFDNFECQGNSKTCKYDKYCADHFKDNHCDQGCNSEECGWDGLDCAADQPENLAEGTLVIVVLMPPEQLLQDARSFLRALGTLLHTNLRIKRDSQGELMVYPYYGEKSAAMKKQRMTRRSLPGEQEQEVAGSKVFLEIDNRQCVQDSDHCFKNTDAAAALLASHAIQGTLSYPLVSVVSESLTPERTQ

T3: Notch2Long (Notch2 EGF6-EGF12) (human, UniProt Q04721 219-418, biotin via the N-terminal Avi tag (enzymatic biotinylation))
T3 construct: also called N2L protein; hNotch2; not shown: Avi tag, N-terminal, kept
T3 sequence (looked up): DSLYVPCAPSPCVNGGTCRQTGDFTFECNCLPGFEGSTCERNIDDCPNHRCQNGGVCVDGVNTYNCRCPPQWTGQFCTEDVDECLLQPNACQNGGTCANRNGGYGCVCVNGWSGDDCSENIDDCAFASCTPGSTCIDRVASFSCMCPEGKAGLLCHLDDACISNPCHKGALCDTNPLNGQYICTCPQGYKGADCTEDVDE


Columns and labels:
[1] = target: T1, Notch2Long (Notch2 EGF6-EGF12); test: ELISA; conditions: one partner purified
[2] = target: T2, Notch2NRR (Notch2 NRR domain); test: SPR; conditions: both partners purified
[3] = target: T2, Notch2NRR (Notch2 NRR domain); test: ELISA; conditions: one partner purified
HtrA1 = target: T4, HtrA1 (human, UniProt Q92743 23-480, biotin on lysines (Sulfo-NHS-LC-biotin) for panning and SPR); test: ELISA; conditions: one partner purified
T4 construct: also called HtrA1 FL; human full-length HtrA1
T4 sequence (Q92743 23-480): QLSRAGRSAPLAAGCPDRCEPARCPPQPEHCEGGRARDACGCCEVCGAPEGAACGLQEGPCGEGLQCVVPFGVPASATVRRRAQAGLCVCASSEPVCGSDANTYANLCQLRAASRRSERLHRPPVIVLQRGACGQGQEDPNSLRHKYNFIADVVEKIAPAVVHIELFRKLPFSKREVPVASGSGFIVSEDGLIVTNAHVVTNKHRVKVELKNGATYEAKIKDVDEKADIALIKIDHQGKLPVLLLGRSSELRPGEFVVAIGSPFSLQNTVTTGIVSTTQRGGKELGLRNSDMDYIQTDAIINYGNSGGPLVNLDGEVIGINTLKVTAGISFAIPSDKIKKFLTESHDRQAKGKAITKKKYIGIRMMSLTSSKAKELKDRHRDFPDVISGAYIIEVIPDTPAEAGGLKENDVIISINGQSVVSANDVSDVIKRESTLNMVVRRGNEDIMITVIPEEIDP

[4] = target: T3, Notch2Long (Notch2 EGF6-EGF12); test: SPR; conditions: both partners purified
Her3-Fc = Her3-Fc (UniProt P21860 20-643); test: ELISA; conditions: one partner purified
Sequence of Her3-Fc (P21860 20-643): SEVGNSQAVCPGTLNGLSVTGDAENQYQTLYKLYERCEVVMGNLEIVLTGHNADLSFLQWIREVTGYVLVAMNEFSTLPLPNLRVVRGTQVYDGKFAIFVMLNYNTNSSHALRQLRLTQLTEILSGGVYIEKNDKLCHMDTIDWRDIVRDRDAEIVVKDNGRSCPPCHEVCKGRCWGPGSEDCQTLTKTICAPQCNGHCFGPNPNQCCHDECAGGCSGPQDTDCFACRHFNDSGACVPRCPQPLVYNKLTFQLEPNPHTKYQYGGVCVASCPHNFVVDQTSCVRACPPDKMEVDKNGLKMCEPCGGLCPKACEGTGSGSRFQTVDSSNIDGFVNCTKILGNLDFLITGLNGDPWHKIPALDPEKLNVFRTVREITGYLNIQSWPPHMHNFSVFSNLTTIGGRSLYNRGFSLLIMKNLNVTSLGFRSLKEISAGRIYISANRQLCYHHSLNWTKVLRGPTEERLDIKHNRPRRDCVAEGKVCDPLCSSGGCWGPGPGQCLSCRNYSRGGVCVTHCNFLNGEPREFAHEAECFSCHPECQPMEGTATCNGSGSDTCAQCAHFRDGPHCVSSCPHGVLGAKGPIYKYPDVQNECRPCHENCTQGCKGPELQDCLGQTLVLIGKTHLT

Binder	ELISA [1]	s/n Ratio [1]	further results
GCIKSHLWCPKTSDCEAGCICEVWIQCG (designed binder) [N2L.EET31.43.24 displayed on M13 phage (p3)]	2.1	10.5	–
GCQQRRWGGWQQCKQDSDCLAGCVCGPNGFCG (designed binder) [N2N-EET-33]	–	–	Kd [2]: 55.6 µM
GCGQKRMGGWQWCKQDSDCLAGCVCGPNGFCG (designed binder) [N2N-EET-n13]	–	–	Kd [2]: 12 µM
GCGQQRWGGWPLCKQDSDCLAGCVCGPNGFCG (designed binder) [N2N-EET-45 displayed on M13 phage]	–	–	ELISA [3]: 3.5; s/n Ratio [3]: 14.9
GCGQQRWGGWPLCKQDSDCLAGCVCGPNGFCG (designed binder) [N2N-EET-45]	–	–	Kd [2]: 55.9 µM
GCQQRRWGGWQQCKQDSDCLAGCVCGPNGFCG (designed binder) [N2N-EET-33 displayed on M13 phage]	–	–	ELISA [3]: 3.6; s/n Ratio [3]: 28.9
GCGQKRMGGWQWCKQDSDCLAGCVCGPNGFCG (designed binder) [N2N-EET-n13 displayed on M13 phage]	–	–	ELISA [3]: 3.4; s/n Ratio [3]: 53.9
GCIRSQLWCPSDERCLAGCVCEVWIKCG (designed binder) [N2L.EET31.32.80 displayed on M13 phage (p3)]	2.1	7.6	–
GCRPRWGGWHCKQDSDCLAGCVCGPNGFCG (designed binder) [N2N-EET-57 displayed on M13 phage]	–	–	ELISA [3]: 3.8; s/n Ratio [3]: 30.9
GCIKSHLWCPRDSDCLAGCVCEVWIQCG (designed binder) [N2L.EET31.32.13 displayed on M13 phage (p3)]	2.2	10.2	–
GCIRSHLWCPPSASCLAGCVCEVWIQCG (designed binder) [N2L.EET31.32.70 displayed on M13 phage (p3)]	1.9	7.3	–
GCIRSHVWCKQDSDCEAGCICEIWIQCG (designed binder) [N2L.EET31.43.43 displayed on M13 phage (p3)]	2	10.2	–
WIPCISAALGCSCKNKVCYIFSKHLCGESCV (designed binder) [HtrA1_CirA65 displayed on M13 phage]	–	–	ELISA (HtrA1): 2.2; s/n Ratio (HtrA1): 33.9
GCGWTLRHCKQDSDCLAGCVCEPKWWCG (designed binder) [N2L.EET03.63]	–	–	Kd [4]: 44.8 µM
GCGWTLWHCKQDSDCLAGCVCEPKWMCG (designed binder) [N2L.EET03.67]	–	–	Kd [4]: 15.4 µM
GCGWTLRHCKQDSDCLAGCVCEPVWWCG (designed binder) [N2L.EET03.88]	–	–	Kd [4]: 8.8 µM
GCGWTLRHCKQDSDCLAGCVCKPKWTCG (designed binder) [N2L.EET03.34]	–	–	Kd [4]: 8.6 µM
GCGWTLMHCKQDSDCLAGCVCEPIWWCG (designed binder) [N2L.EET03.n5]	–	–	Kd [4]: 13.2 µM
GCGWTLRHCKQDSDCLAGCVCEPIWWCG (designed binder) [N2L.EET03.18]	–	–	Kd [4]: 8.9 µM
GCGWTLWHCKQDSDCLAGCVCEPKWFCG (designed binder) [N2L.EET03.58]	–	–	Kd [4]: 8.2 µM
GCGWTLRHCKQDSDCLAGCVCEPKWMCG (designed binder) [N2L.EET03.1867]	–	–	Kd [4]: 9.5 µM
GCGWTLKHCKQDSDCLAGCVCEPIWWCG (designed binder) [N2L.EET03.30]	–	–	Kd [4]: 13.1 µM
GCIKSHLWCPHGGRCEAGCICEVWIQCG (designed binder) [N2L.EET31.43.30 displayed on M13 phage (p3)]	2.2	10.7	–
GCRPRWGGWHCKQDSDCLAGCVCGPNGFCG (designed binder) [N2N-EET-57]	–	–	Kd [2]: 132 µM
GCRPRFKGWTCKQDSDCLAGCVCGPNGFCG (designed binder) [N2N-EET-n3]	–	–	Kd [2]: 180 µM

Binder	ELISA [1]	s/n Ratio [1]	further results
GCRPRFKGWTCKQDSDCLAGCVCGPNGFCG (designed binder) [N2N-EET-n3 displayed on M13 phage]	–	–	ELISA [3]: 2.1; s/n Ratio [3]: 33.1
GCMPRYGGWHCKQDSDCLAGCVCGPNGFCG (designed binder) [N2N-EET-63]	–	–	Kd [2]: 166 µM
GCMPRYGGWHCKQDSDCLAGCVCGPNGFCG (designed binder) [N2N-EET-63 displayed on M13 phage]	–	–	ELISA [3]: 1.5; s/n Ratio [3]: 21.3
GCVRSHLWCKQDSDCEAGCICEVWIKCG (designed binder) [N2L.EET31.43.73 displayed on M13 phage (p3)]	2.3	11	–
GCHRPWWQLWGLCKQDSDCLAGCVCGPNGFCG (designed binder) [HtrA1_EET76 displayed on M13 phage]	–	–	ELISA (HtrA1): 1; s/n Ratio (HtrA1): 13.7
GCIKSHLWCHPKLDCEAGCICEVWIQCG (designed binder) [N2L.EET31.43.18 displayed on M13 phage (p3)]	2.1	10.2	–
GCIRSHVWCKQDSDCEAGCICEVWVKCG (designed binder) [N2L.EET31.43.64 displayed on M13 phage (p3)]	2	8.8	–
ACKGVFDACTWKNWRQSRSRECCPNAVCSDKHKWCKWKL (designed binder, Huwentoxin scaffold) [HtrA1_HwTx69 displayed on M13 phage]	–	–	ELISA (HtrA1): 0.9; s/n Ratio (HtrA1): 9.6
GCVRSHVWCPSDERCLAGCVCEIWIRCG (designed binder) [N2L.EET31.32.85 displayed on M13 phage (p3)]	2	4.3	–
ECKGKGAKCSIQWSVYPWKVCCTGSCRSGKC (designed binder, Conotoxin-MVIIA scaffold) [HtrA1_CnTx83 displayed on M13 phage]	–	–	ELISA (HtrA1): 1.1; s/n Ratio (HtrA1): 16.1
GCIKSHLWCDPRVSCEAGCICEVWIQCG (designed binder) [N2L.EET31.43.78 displayed on M13 phage (p3)]	1.9	10.3	–
GCIKSHLWCDPRKSCEAGCICEVWIQCG (designed binder) [N2L.EET31.43.88 displayed on M13 phage (p3)]	1.9	10.2	–
GCIKSHLWCPSDERCLAGCVCEVWIQCG (designed binder, also called N2L.31.L2.32) [N2L.EET31.32 displayed on M13 phage (p3)]	0.5	3.7	–
GCIKSHLWCPPSDYCLAGCVCEVWIQCG (designed binder) [N2L.EET31.32.21 displayed on M13 phage (p3)]	1.8	9.1	–
VSCTTSKECWSVCQRLHNTSWGEQCVTKFCKCEE (designed binder, Charybdotoxin scaffold; source: M13 phage from E. coli, culture supernatant) [Her3-Fc_ChTx1 displayed on M13 phage]	–	–	ELISA (Her3-Fc): 1.7; s/n Ratio (Her3-Fc): 22.6
GCGWTLRHCKQDSDCLAGCVCRPIWYCG (designed binder) [N2L.EET03.10 displayed on M13 phage]	3	48.4	–
GCIKSHLWCKQDSDCEAGCICEVWIQCG (designed binder, also called N2L.31.L34.43) [N2L.EET31.43 displayed on M13 phage (p3)]	0.7	5.1	–
WIPCISAALGCSCKNKVCYFLYQICGESCV (designed binder) [HtrA1_CirA38 displayed on M13 phage]	–	–	ELISA (HtrA1): 2.1; s/n Ratio (HtrA1): 31.9
GCIKSHLWCPRHEKCLAGCVCEVWIRCG (designed binder) [N2L.EET31.32.29 displayed on M13 phage (p3)]	2	9.3	–
VSCTTSKECWSVCQRLHNTSWLGSCMERFCKCVD (designed binder, Charybdotoxin scaffold; source: M13 phage from E. coli, culture supernatant) [Her3-Fc_ChTx2 displayed on M13 phage]	–	–	ELISA (Her3-Fc): 1.6; s/n Ratio (Her3-Fc): 24.3
GCIKSHLWCPRAEKCLAGCICEVWIQCG (designed binder) [N2L.EET31.32.33 displayed on M13 phage (p3)]	1.9	9.3	–
GCIKSHLWCDPRKDCEAGCICEVWIQCG (designed binder) [N2L.EET31.43.75 displayed on M13 phage (p3)]	2.1	10.3	–
GCIKSHLWCPPPRRCEAGCICEVWIQCG (designed binder) [N2L.EET31.43.35 displayed on M13 phage (p3)]	2.1	11.6	–
GCIKSHLWCPGKERCLAGCICEIWIQCG (designed binder) [N2L.EET31.32.48 displayed on M13 phage (p3)]	1.9	7.2	–
